# Test results taken from patent US10052415B2, “Tropoelastin for promoting endothelial cell adhesion or migration” (University of Utah Research Foundation, priority 2005, dated 2018).
# B1: tropoelastin: recombinant human tropoelastin lacking native signal sequence, 10× His tag and Factor Xa site on N-terminus, 706 amino acid residues (SEQ ID NO: 4) (protein, listed as Homo sapiens)
# chain: MGHHHHHHHHHHSSGGIEGRGGVPGAIPGGVPGGVFYPGAGLGALGGGALGPGGKPLKPVPGGLAGAGLGAGLGAFPAVTFPGALVPGGVADAAAAYKAAKAGAGLGGVPGVGGLGVSAGAVVPQPGAGVKPGKVPGVGLPGVYPGGVLPGARFPGVGVLPGVPTGAGVKPKAPGVGGAFAGIPGVGPFGGPQPGVPLGYPIKAPKLPGGYGLPYTTGKLPYGYGPGGVAGAAGKAGYPTGTGVGPQAAAAAAAKAAAKFGAGAAGVLPGVGGAGVPGVPGAIPGIGGIAGVGTPAAAAAAAAAAKAAKYGAAAGLVPGGPGFGPGVVGVPGAGVPGVGVPGAGIPVVPGAGIPGAAVPGVVSPEAAAKAAAKAAKYGARPGVGVGGIPTYGVGAGGFPGFGVGVGGIPGVAGVPGVGGVPGVGGVPGVGISPEAQAAAAAKAAKYGVGTPAAAAAKAAAKAAQFALLNLAGLVPGVGVAPGVGVAPGVGVAPGVGLAPGVGVAPGVGVAPGVGVAPGIGPGGVAAAAKSAAKVAAKAQLRAAAGLGAGIPGLGVGVGVPGLGVGAGVPGLGVGAGVPGFGAVPGALAAAKAAKYGAAVPGVLGGLGALGGVGIPGGVVGAGPAAAAAAAKAAAKAAQFGLVGAAGLGGLGVGGLGVPGVGGLGGIPPAAAAKAAKYGVAARPGFGLSPIFPGGACLGKACGRKRK
# Experiments:
# Type in all cases: cell-based
# [1] = test system: A2058 human melanoma cells; assay: Cell adhesion assay, A2058 cells
# Method: A2058 cells were assayed for adherence to substrates coated with BSA (control), fibronectin, tropoelastin, or a bioactive fragment of tropoelastin corresponding to a single repeat of the hexameric sequence VGVAPG (SEQ ID No. 5). In comparison to adherence to BSA, A2058 cells adhered to substrates coated with fibronectin tropoelastin, or a bioactive fragment of tropoelastin.
# (§1) Cells were harvested with 0.25% trypsin/1 mM EDTA, washed three times in adhesion buffer (0.5% BSA in basal medium), suspended at a working density of 5×10^5/ml in adhesion buffer, and then allowed to recover for 1 h at 37° C. (5% CO2). For integrin-blocking assays, 25 μg/ml anti-integrin antibodies (Chemicon, Temecula, Calif.) or control IgG (Jackson ImmunoResearch Laboratories, Inc, West Grove, Pa.) were added to the cell suspension during the recovery period. During the cell recovery, the coated 96-well plates were washed twice in dPBS and blocked for 1 h at 25° C. in 5.0% BSA (dPBS). The blocking solution was removed, and the wells were washed twice in dPBS. Recovered cells were added to the coated wells in a volume of 100 μl per well and placed at 37° C. for 30 minutes (5% CO2). Following this incubation, the assay plate was inverted and assay wells were washed twice with 100 μl dPBS to remove non-specifically adhered cells. The wells were then fixed in Zamboni fixative, stained with Gill 1 hematoxylin, and overlayed with 80% glycerol. The assay was imaged at 100× magnification, capturing 3 random fields/well on a Zeiss Axiovert 200 inverted microscope equipped with a Zeiss Axiocam digital camera. Readings represent the number of adherent cells/well (average six high powered 100× fields, three taken from each of two separate wells).
# [2] = test system: human microvessel endothelial cells (HMVEC); assay: Adhesion assay on coated stainless steel disks, HMVEC; settings: FIG. 6
# Description: Given that an important aspect of the present invention is the prevention of restenosis and thrombosis, we conducted experiments to address whether endothelial cells would adhere to metal devices that had been coated with tropoelastin. Briefly, tropoelastin was covalently conjugated to a stainless steel disk approximately 6 mm in diameter. Tropoelastin was linked to the disk surface using an intermediate polysaccharide molecule. An exemplary process for covalently linking tropoelastin to the disk surface, and the process used here, is used in the manufacture of Genous Bio-Engineered R Stents. These disks provided ample surface area for microscopic imaging. Disks were also similarly coated with anti-CD34 antibody and with polysaccharide vehicle alone. Stents coated with anti-CD34 antibody using a similar process (Genous Bio-Engineered R Stents) are currently in human clinical trials and have promise to promote capture of circulating endothelial cells and endothelial progenitor cells and to accelerate endothelialization.
# Human microvessel endothelial cells (HMVEC) were cultured with these coated disks, and adhesion of the cells to the coated disks was assayed. […]
# [3] = test system: human aortic endothelial cells (HuAEC); assay: Cell adhesion assay on coated culture plates, HuAEC
# Method: Cells were plated on culture plates coated with either 0.1% BSA (as a control), 10 ug/ml fibronectin (FN), or 10 ug/ml recombinant tropoelastin, and assayed for adherence to the coated substrate.
# as §1, with “96-well plates were coated in duplicate overnight at 4° C. with 10 μg/ml collagen, fibronectin, tropoelastin, or 0.1% bovine serum albumin (BSA). Cells” for “Cells”
molecule,measurement,setting,value
B1,level of A2058 adhesion relative to fibronectin,[1]; 50 μg/ml of tropoelastin,similarly to 10 ug/ml of fibronectin
same,dose dependence of A2058 adhesion,[1]; FIG. 4,dose dependent
same,adhesion of A2058 cells in comparison to BSA,"[1]; FIG. 4, coated substrates, peptide 10 μM",adhered
same,HMVEC adhesion to coated disks relative to anti-CD34 antibody coated disks,[2],comparable to the adhesion of HMVECs to stainless steel disks coated with an anti-CD34 antibody
same,adhesion of HMVEC to coated stainless steel disks,[2]; protein covalently conjugated to 6 mm disk,promoted adhesion of human endothelial cells to a metal device
same,"HuAEC adhesion, number of cells bound/well, relative to other coats","[3]; FIG. 2, coated wells",comparable to that observed with fibronectin or collagen
same,adhesion of HuAEC to the coated substrate,"[3]; culture plates coated with 10 ug/ml protein, 0.1% BSA control",adhered to tropoelastin
